From publication PMC12077105, “PASTA kinase signaling regulates peptidoglycan synthesis in Enterococcus faecalis by direct inhibition of UDP-N-acetylglucosamine 1-carboxyvinyl transferase activity” (mBio, 2025)

What was measured:
[1] = target: recombinant MurAB-His6 (E. faecalis) (UniProt Q836E5); experiment: thermal shift assay; 2.5 uM MurAB with rising molar ratios of test protein, 10x SYPRO Orange, 50 mM Tris, 25 mM NaCl, pH 7.5; change of the MurAB melt temperature
recombinant MurAB-His6 [2] = target: T1, recombinant MurAB-His6 (E. faecalis, UniProt Q836E5 1-430); experiment: cell-based or functional assay
T1 sequence: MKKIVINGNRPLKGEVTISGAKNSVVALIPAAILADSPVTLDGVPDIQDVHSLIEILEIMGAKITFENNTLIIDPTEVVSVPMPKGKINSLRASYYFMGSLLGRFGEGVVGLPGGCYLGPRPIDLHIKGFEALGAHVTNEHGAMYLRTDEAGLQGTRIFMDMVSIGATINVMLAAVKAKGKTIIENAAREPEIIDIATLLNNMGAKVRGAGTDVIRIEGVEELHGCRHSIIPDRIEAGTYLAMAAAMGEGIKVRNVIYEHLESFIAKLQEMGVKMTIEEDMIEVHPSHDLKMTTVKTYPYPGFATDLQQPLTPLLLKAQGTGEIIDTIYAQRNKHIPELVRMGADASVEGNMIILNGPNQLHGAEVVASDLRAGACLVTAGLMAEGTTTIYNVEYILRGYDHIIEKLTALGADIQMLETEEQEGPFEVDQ

recombinant MurAB-His6 [3] = target: T1, recombinant MurAB-His6; experiment: thermal shift assay; 2.5 uM MurAB with rising molar ratios of test protein, 10x SYPRO Orange, 50 mM Tris, 25 mM NaCl, pH 7.5; change of the MurAB melt temperature; details: both partners purified

Molecule: purified recombinant IreB D50A (expressed as His6-SUMO-IreB D50A) (from UniProt Q836B3 1-89) (natural protein)
- maximum shift of the MurAB Tm [1]: 1.5 °C

B1: purified recombinant wild-type IreB (expressed as His6-SUMO-IreB) (natural protein)
chain: MGFTDETVRFDFDDNRKKAISETLETVYRALEEKGYNPINQIVGYLLSGDPAYIPRYQDARNLIRRHERDEIMEELTKYYLANHGIDIK
notes: IreB of Enterococcus faecalis; wild-type allele amplified from OG1RF genomic DNA; IreB for the enzymatic assays was purified in MOPS buffer; also called unphosphorylated IreB; source: E. coli BL21(DE3), purified (Ni-charged resin)
- UNAG-CTase activity of purified MurAB (release of inorganic phosphate) with 10-fold molar excess of IreB: decrease of the reaction rate (recombinant MurAB-His6 [2]): ~25%
- maximum shift of the MurAB Tm (recombinant MurAB-His6 [3]): 5 °C
